Data published in patent publication US11807689 (TG THERAPEUTICS, dated 2023).

What was measured:
[1] = target: FcγIIIA Receptor on the effector cells (UniProt P08637 17-254, limits assumed); experiment: cell-based or functional assay
[2] = target: C1q Receptor in the complement system (rabbit serum complement) (rabbit); experiment: cell-based or functional assay
FcγRIIIa 158V receptor = target: T1, FcγRIIIa 158V receptor (human, UniProt P08637 17-208, limits assumed); experiment: SPR, receptor amine-coupled to the chip
T1 construct: in the Octet assay part of a 'Human Fc receptor panel' loaded on Anti-Penta His biosensors, so probably His-tagged; also called FcγRIIIA V158
T1 sequence (P08637 17-208 F176V limits assumed): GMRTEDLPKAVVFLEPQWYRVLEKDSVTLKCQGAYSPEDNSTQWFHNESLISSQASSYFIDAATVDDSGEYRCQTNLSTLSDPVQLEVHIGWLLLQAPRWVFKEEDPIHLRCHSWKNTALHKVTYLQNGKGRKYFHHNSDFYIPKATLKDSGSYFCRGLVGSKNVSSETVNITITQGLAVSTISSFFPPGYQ
Procedure: (§1) The method follows a direct binding assay methodology where the FcγRIIIa receptor is directly immobilized onto the flow cell on a sensor chip surface and samples are injected over the chip to assess binding. […] Independent duplicates of sample dilutions are injected over the chip, followed by surface regeneration between each cycle. The binding is measured in response units (RU). The kinetics of the binding reaction is determined by measuring changes in SPR due to the increase in mass in the close proximity to the biosensor chip surface. Change in the mass of the complex as a function of time is visualized as a sensorgram.
(§2) The equilibrium dissociation constants (K_D) of each sample is determined for each receptor.

FcγRIIIa 158F receptor = target: T2, FcγRIIIa 158F receptor (human, UniProt P08637 17-208, limits assumed); experiment: SPR, receptor amine-coupled to the chip
T2 construct: in the Octet assay part of a 'Human Fc receptor panel' loaded on Anti-Penta His biosensors, so probably His-tagged; also called FcγRIIIA F158
T2 sequence (P08637 17-208 limits assumed): as the sequence (P08637 17-208 F176V limits assumed) above, with V160F counted along it
Procedure: as §1, §2

Chain of FcγIIIA Receptor on the effector cells (P08637 17-254 limits assumed): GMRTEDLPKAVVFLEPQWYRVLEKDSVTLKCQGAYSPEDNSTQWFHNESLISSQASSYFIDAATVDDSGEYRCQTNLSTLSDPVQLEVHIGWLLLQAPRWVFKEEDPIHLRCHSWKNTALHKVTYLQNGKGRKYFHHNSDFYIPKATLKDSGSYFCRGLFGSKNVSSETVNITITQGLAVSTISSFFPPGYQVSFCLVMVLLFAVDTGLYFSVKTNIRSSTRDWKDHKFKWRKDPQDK

B1: TG-1101 (TG Therapeutics, Inc.) (antibody, human IgG1, kappa)
heavy: not shown
light: QIVLSQSPAILSASPGEKVTMTCRASSSVSYMHWYQQKPGSSPKPWIYATSNLASGVPARFSGSGSGTSYSFTISRVEAEDAATYYCQQWTFNPPTFGGGTRLEIKRTVAAPSVFIFPPSDEQLKSGTASVVCLLNNFYPREAKVQWKVDNALQSGNSQESVTEQDSKDSTYSLSSTLTLSKADYEKHKVYACEVTHQGLSSPVTKSFNRGEC
notes: Chimeric IgG1 made in rat YB2/0 cells, low-fucose N-glycan profile; also called ublituximab; UBX
B1 was tested, and the “ADCC EC50, fold lower than OCREVUS ®” value [1] was roughly 25 fold, the “CDC EC50 (Jeko-1 cells, rabbit serum)” value [2] was 0.67 µg/mL and the “fold higher affinity than OCREVUS®” value (FcγRIIIa 158V receptor) was roughly 15 fold. The “fold higher affinity than OCREVUS®” value (FcγRIIIa 158F receptor) was roughly 10 fold.
